Experimental findings from patent US20230074436A1 (DENALI THERAPEUTICS, published 2023) are described below.

The target in experiment [1] is T1, alpha-synuclein peptide 1-61 (human).
T1 construct: synthetic peptide coated on plate
Kind of experiment: peptide ELISA.
Protocol: (§1) 96-well Nunc plates were coated with 1 pg/mL of the indicated synthetic peptide in PBS 50 μL/well overnight. The plates were washed three times with PBST, then blocked with 150 μL of 3% BSA in PBS for 1 hour. Purified antibody was diluted by serial dilution methods, from 10 pg/mL to 0.6 ng/ml, and 50 μL of the antibody solution was added to the peptide-coated wells. The plates were incubated for 1 hour at room temperature, then washed three times with PBST. Secondary detection antibody, goat anti-rat HRP (obtained from Southern Biotech) 1:5,000 diluted in BSA-PBS, was added to a concentration of 50 μL/well. Plates were incubated for one hour and washed three times with PBST. Plates were then developed with 50 μL/well of TMB substrate (obtained from Thermo Fisher) and quenched with 50 μL/well of 1 N sulfuric acid. The signal was quantified on a BioTek® plate reader at A450.

Experiment [2] has as its target T2, alpha-synuclein peptide 1-95 (human).
T2 construct: synthetic peptide coated on plate
The experiment can be described thus: peptide ELISA. In general terms: An ELISA detects its analyte on a solid surface through an enzyme-linked reagent.
Protocol: as §1

The target of experiment [3] is alpha-synuclein peptide 1-112 (human). The experiment can be described thus: peptide ELISA.
Protocol: as §1
For experiment [4], the target named is T3, alpha-synuclein peptide 95-140 (human).
T3 construct: synthetic peptide coated on plate
Kind of experiment: peptide ELISA, coated fragment.
Protocol: as §1

The target in experiment [5] is T4, alpha-synuclein peptide 61-140 (human).
T4 construct: synthetic peptide coated on plate
Kind of experiment: peptide ELISA, coated fragment.
Protocol: as §1

The target of experiment [6] is T5, human alpha-synuclein monomer (human, UniProt P37840 1-140). Kind of experiment: direct ELISA on coated antigen.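 Also: plates coated with recombinant human, mouse or rat alpha-synuclein, purified antibody titrated 10 µg/mL down to 0.6 ng/mL for 1 h, bound antibody detected by anti-rat HRP with TMB.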
Protocol: (§2) 96-well Nunc plates were coated with 50 μL of recombinant human, mouse, or rat alpha-synuclein at a concentration of 1 μg/mL in PBS at 4° C. overnight. The plates were then washed three times with PBST and blocked with PBS containing 3% BSA at room temperature for 1 hour. Purified antibody was diluted by serial dilution methods, from 10 μg/mL to 0.6 ng/mL, and 50 μL of the antibody solution was added to the alpha-synuclein-coated wells. The plates were incubated for 1 hour at room temperature, then washed three times with PBST. Secondary detection antibody (goat anti-rat HRP (obtained from Southern Biotech)) was added 50 μL/well, 1:5,000 diluted in BSA-PBS solution. Plates were incubated for 1 hour at room temperature, then washed three times with PBST. Plates were subsequently developed with 50 μL/well of TMB substrate (Thermo Fisher) and quenched with 50 μL/well of 1 N sulfuric acid. The signal was quantified on a BioTek® plate reader at A450.
Experiment [7] concerns the target T6, rat alpha-synuclein (rat, UniProt P37377 1-140). Kind of experiment: direct ELISA on coated antigen.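 Also: plates coated with recombinant human, mouse or rat alpha-synuclein, purified antibody titrated 10 µg/mL down to 0.6 ng/mL for 1 h, bound antibody detected by anti-rat HRP with TMB.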
Protocol: as §2
Experiment [8] concerns the target T7, beta-synuclein protein (human, UniProt Q16143 1-134).
T7 construct: species read from 'recombinant human alpha-synuclein protein, beta-synuclein protein, and gamma-synuclein protein'
The experiment can be described thus: ELISA on coated synuclein, 1 ug/mL.
Protocol: (§3) Binding to different synuclein species was tested using a method similar to the ELISA format described above. Briefly, recombinant human alpha-synuclein protein, beta-synuclein protein, and gamma-synuclein protein was coated onto 96-well Nunc plates at 1 μg/mL. The plates were washed with PBST and blocked with 150 μL of 3% BSA in PBS. The serial dilutions of purified antibodies were applied onto the plate, and the associated antibody was detected with goat anti-rat HRP secondary antibody.

The target of experiment [9] is T8, gamma-synuclein protein (human, UniProt O76070 1-127).
T8 construct: species read from 'recombinant human alpha-synuclein protein, beta-synuclein protein, and gamma-synuclein protein'
Kind of experiment: ELISA on coated synuclein, 1 ug/mL.
Protocol: as §3

In experiment [10] the target is T5, human alpha-synuclein monomer. Kind of experiment: ELISA, coated human alpha-synuclein.
The target in experiment [11] is alpha-synuclein phosphorylated at serine 129 (human, UniProt P37840 1-140). The experiment can be described thus: SPR (Biacore), antibody captured, p129-Syn injected. (In general: In SPR one partner is held on a chip, and binding of the other changes the refractive index at the surface.)
Protocol: (§4) Anti-mouse Fc antibody (obtained from GE Healthcare) was immobilized on the surface of a CM5 chip (obtained from GE Healthcare) through amine-coupling to reach about 6,000 to 8,000 response units (RU). The surface was activated by injection of a mixture of 1-ethyl-3-(3-dimethylaminopropyl)-carbodiimide (EDC) and N-hydroxysuccinimide (NETS), both obtained from GE Healthcare, for 7 minutes at room temperature. […] Both injections were done at room temperature.
(§5) Purified rat anti alpha-synuclein antibody (10 μg/mL) was injected at room temperature and captured to reach 1,000 to 2,000 RU. […] Sensorgrams were fitted using a 1:1 Langmuir model to estimate kₒₙ and koff.
Experiment [12] addresses T5, human alpha-synuclein monomer. The experiment can be described thus: SPR (Biacore), antibody captured, monomer injected, 1:1 fit.
Protocol: as §4, §5
Experiment [13] has as its target T6, rat alpha-synuclein. Kind of experiment: direct ELISA; member tied to this end by the EC50 values of Table 6 (2.0/0.03).
Protocol: as §2
Experiment [14] concerns the target T6, rat alpha-synuclein. Kind of experiment: direct ELISA on coated antigen; upper end tied to 22D11 by Table 6 (2.0 nM rat / 0.03 nM human).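 Also: plates coated with recombinant human, mouse or rat alpha-synuclein, purified antibody titrated 10 µg/mL down to 0.6 ng/mL for 1 h, bound antibody detected by anti-rat HRP with TMB.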
Protocol: as §2
Experiment [15] addresses T5, human alpha-synuclein monomer. The experiment can be described thus: ELISA, plate coated with the peptide or protein, antibody titrated, anti-rat HRP, A450.
Protocol: as §1
Experiment [16] addresses T3, alpha-synuclein peptide 95-140. The description is as above.
Protocol: as §1
Experiment [17] deals with T4, alpha-synuclein peptide 61-140. Described as above.
Protocol: as §1
For experiment [18], the target named is T9, human alpha-synuclein pre-formed fibrils (human, UniProt P37840 1-140). The experiment can be described thus: competition ELISA: fibrils titrated in solution against 0.6 nM antibody, free antibody read on aSyn-coated plate.
Protocol: Purified antibody was probed with different concentrations of alpha-synuclein fibrils in solution, and the levels of unbound antibody were measured by ELISA analysis. In this experiment, 0.6 nM (0.1 μg/mL) of purified antibody was dissolved in phosphate-buffered saline (PBS) solution. […] The mixtures were gently shaken at room temperature for 1 hour to reach equilibrium. After that, these samples were transferred to an alpha-synuclein protein-coated ELISA plate and incubated for 5 minutes. During this short incubation, antibody that was not associated to antigen in the previous solution could instead bind onto the plate, and thus be quantified using a standard ELISA technique. By this means, it was possible to determine the amount of free antibody in the initial mixture with alpha-synuclein fibrils at indicated concentrations.
The target of experiment [19] is T10, human alpha-synuclein oligomers (human, UniProt P37840 1-140). The experiment can be described thus: competition ELISA: oligomers titrated in solution against 0.6 nM antibody, free antibody read on aSyn-coated plate.
Protocol: To measure the binding affinities of select antibodies toward oligomeric alpha-synuclein protein, purified antibodies were probed with different concentrations of human alpha-synuclein oligomers in solution, and the levels of unbound antibody were measured by ELISA analysis. In this experiment, 0.6 nM (0.1 pg/mL) of purified antibody was dissolved in phosphate-buffered saline (PBS) solution. […] The mixtures were gently shaken at room temperature for 1 hour to reach equilibrium. After that, these samples were transferred to an alpha-synuclein protein-coated ELISA plate, and antibody not bound to antigen in the previous solution was detected by direct ELISA.
The target in experiment [20] is T5, human alpha-synuclein monomer. Kind of experiment: direct ELISA, plate coated with 1 µg/mL recombinant human alpha-synuclein, antibody titrated, anti-rat HRP, A450.
Protocol: as §2
Experiment [21] has as its target mouse alpha-synuclein (mouse, UniProt O55042 1-140). Kind of experiment: direct ELISA, plate coated with 1 µg/mL recombinant mouse alpha-synuclein, antibody titrated, anti-rat HRP, A450.
Protocol: as §2
In experiment [22] the target is T9, human alpha-synuclein pre-formed fibrils. Kind of experiment: SPR; SPR; aSyn fibrils.
Experiment [23] deals with T5, human alpha-synuclein monomer. The experiment can be described thus: SPR; SPR; aSyn monomers.
Experiment [24] addresses T10, human alpha-synuclein oligomers. The experiment can be described thus: SPR; SPR; aSyn oligomers.
In experiment [25] the target is T5, human alpha-synuclein monomer. Kind of experiment: SPR (Biacore), aSyn monomers.
Protocol: (§6) Serial 3-fold dilutions of aSyn were injected at a flow rate of 30 μL/min. Each sample was analyzed using a 3-minute association and a 10-minute dissociation. After each injection, the chip was regenerated using 3 M MgCl₂. Binding response was corrected by subtracting the RU from a flow cell capturing an irrelevant IgG at similar density. A 1:1 Languir model of simultaneous fitting of kₒₙ and koff was used for kinetics analysis.
The target is the same in experiment [26]. The experiment can be described thus: KinExA kinetic exclusion assay. In general terms: In KinExA the mixture passes briefly over coated beads that capture the unbound partner.
For experiment [27], the target named is T9, human alpha-synuclein pre-formed fibrils. The experiment can be described thus: KinExA kinetic exclusion assay.
For experiment [28], the target named is T10, human alpha-synuclein oligomers. Kind of experiment: KinExA kinetic exclusion assay.
In experiment [29] the target is T5, human alpha-synuclein monomer. Kind of experiment: SPR (Biacore 8K), IgG captured on anti-human Fc, aSyn monomer injected.
Protocol: as §6

By EC50 is commonly meant the concentration needed to bring the measured effect to its halfway point. Higher therefore signals a need for much substance. In general, Kd refers to the constant that tells how readily two partners part at equilibrium. Low values mean higher affinity, high ones lower affinity. One may read the koff as the rate constant with which the complex falls apart. A lower koff goes with a long-lived complex. The kon is the second-order rate constant of association. The EC50 (read off the curve) is the concentration at which the effect is half-maximal. The term IC50 denotes the concentration at which inhibition is half-maximal.

B1: 22D11 (antibody, rat IgG1, V domains shown)
VH: AVQFVESGGGLVRPKESLKISCTASGFTFTNAAIYWVRQAPGKGLECIARIRTKPNNYATYYADSVRGRFTISRDDSKPMVYLQMNELKTEDTAMYYCAADASRGDYWGQGVMVTVSS
VL: DIQMTQSPSVLSASVGDRVTFSCKASQNINKNLDWYQQKLGEVPKVLIYFTNNLQTGIPSRFSGSGSGTDYTLTISSLQPEDVATYYCYQYTSGFTFGAGTKLELK
notes: also called clone 22D11
For B1, the “antibody concentration at which ELISA is positive” value in experiment [1] was above 2600 ng/mL; in [2], above 2600 ng/mL; in [3], above 2600 ng/mL; in experiment [4] it was below 40 ng/mL; in experiment [5], below 40 ng/mL; in experiment [10], below 40 ng/mL. Besides, the “Bmax (O.D. at 450 nm)” value in [6] was 1.2 OD; in [7] it was 0.05 OD. The EC50 came out at 30 pM in experiment [6] and 2000 pM in experiment [7]. The binding result in [8] was “no binding”; in experiment [9], “no binding”; in experiment [21] it was “no binding (tested: 10 µg/ml (log 1))”. Also, the Kd is 42900 pM in experiment [11] and 18200 pM in experiment [12]. The koff is 0.0035 s⁻¹ in [11] and 0.00337 s⁻¹ in [12]. The kon in [11] worked out at 81600 M⁻¹ s⁻¹; in experiment [12], 186000 M⁻¹ s⁻¹. Further, in [13], the “fold higher EC50 for rat than for human alpha-synuclein” value worked out at 66.7 fold. Moreover, the “fold higher EC50 for rat alpha-synuclein compared to human alpha-synuclein” value in experiment [14] came to 66.7 fold. Moreover, the “EC50 (read off the curve)” value in experiment [15] is around 0.04 µg/mL; in [16], around 0.04 µg/mL; in [17], around 0.03 µg/mL; in experiment [20] it was around 0.04 µg/mL. The results for the IC50 in experiment [18] and in experiment [19] were 4530 pM and 15200 pM, respectively.

B2: 20H4_HC5_L1_1 (antibody, V domains shown)
VH: EVQLVESGGGLVQPGGSLRLSCAASGFTFSNAAMYWVRQAPGKGLELLARIRTKPNNYATYHADSVKGRFTISRDDSKNTVYLQMNSLRAEDTAVYYCTADMATGDYWGQGTLVTVSS
VL: DIQMTQSPSSLSASVGDRVTITCKASQNINNNLDWYQQKPGKAPKPLIYSTNNLKTGVPSRFSGSGSGTDFTLTISSLQPEDFATYYCYQYKSAWTFGQGTKVEIK
notes: also called 20H4_H5_L1_1; hu20H4
On to B2, for which the Kd in experiment [22] came out at 270 pM; in experiment [23], 120 pM; in experiment [24], 190 pM; in experiment [25] it was 210 pM; in experiment [26], 15.7 pM; in [27], 0.638 pM. The dissociation constant (Kd) in experiment [28] is 8.86 pM; in [29], 100 pM.
